Results as given in publication doi:10.1101/2024.07.08.602551, “An avidity-driven mechanism of extracellular BMP regulation by Twisted gastrulation” (bioRxiv, 2024).

T1: human ΔN-Chordin (human, UniProt Q9H2X0 127-955)
T1 construct: Chordin, human, truncated form missing the N-terminal vWC1 domain but retaining the C-terminal vWC2-4 domains; source: purified, recombinantly expressed; prepared as described previously (Troilo et al., 2014)
T1 sequence (looked up): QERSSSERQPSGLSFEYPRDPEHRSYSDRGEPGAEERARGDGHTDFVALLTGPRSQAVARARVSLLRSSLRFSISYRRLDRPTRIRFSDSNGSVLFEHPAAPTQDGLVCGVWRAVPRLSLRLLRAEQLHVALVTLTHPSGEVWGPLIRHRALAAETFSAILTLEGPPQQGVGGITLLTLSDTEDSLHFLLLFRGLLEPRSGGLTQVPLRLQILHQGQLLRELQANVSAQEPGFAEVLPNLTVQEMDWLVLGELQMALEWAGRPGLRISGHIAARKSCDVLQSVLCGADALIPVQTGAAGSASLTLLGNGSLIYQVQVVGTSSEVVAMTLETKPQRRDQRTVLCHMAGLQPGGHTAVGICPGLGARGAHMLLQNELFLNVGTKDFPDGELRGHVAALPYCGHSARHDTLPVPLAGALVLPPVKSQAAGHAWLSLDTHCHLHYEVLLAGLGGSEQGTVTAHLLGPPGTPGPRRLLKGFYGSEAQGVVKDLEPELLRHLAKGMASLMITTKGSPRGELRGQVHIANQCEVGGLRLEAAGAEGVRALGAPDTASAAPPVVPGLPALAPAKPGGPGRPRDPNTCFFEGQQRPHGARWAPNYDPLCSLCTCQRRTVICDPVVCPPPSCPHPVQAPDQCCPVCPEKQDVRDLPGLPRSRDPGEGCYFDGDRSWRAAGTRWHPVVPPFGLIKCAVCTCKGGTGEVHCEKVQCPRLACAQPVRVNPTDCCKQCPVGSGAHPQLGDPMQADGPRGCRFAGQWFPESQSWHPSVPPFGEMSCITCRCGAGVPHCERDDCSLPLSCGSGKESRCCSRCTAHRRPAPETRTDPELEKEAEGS


Biological target: T1, human ΔN-Chordin
Experiment: SPR; Biacore T200; wildtype or mutant Tsg immobilised on CM5 by amine coupling (350 RU); analyte (ΔN-Chordin or CHRDL2) in a two-fold series, 30 μl/min, 200 s, 300 s dissociation; 20 mM HEPES, 150 mM NaCl, 0.05% Tween20, pH 7.4, 25°C; Langmuir 1:1 fit; triplicate
Settings: both partners purified

Binder | Kd
human Twisted gastrulation (residues Cys26-Phe223) (natural protein, UniProt Q9GZX9 26-223, looked up, Cloned in the vector pHLsec (Addgene_99845) between AgeI and KpnI; secreted; also called Tsg; human Tsg; source: Expi293-F cells, transfected, purified from conditioned media (Strep-Tactin XT, SEC)) CNKALCASDVSKCLIQELCQCRPGEGNCSCCKECMLCLGALWDECCDCVGMCNPRNYSDTPPTSKSTVEELHEPIPSLFRALTEGDTQLNWNIVSFPVAEELSHHENLVSFLETVNQPHHQNVSVPSNNVHAPYSSDKEHMCTVVYFDDCMSIHQCKISCESMGASKYRWFHNACCECIGPECIDYGSKTVKCMNCMF | 14 nM
human Twisted gastrulation Leu107Ala (natural protein, UniProt Q9GZX9 26-223, looked up, Twisted gastrulation (Tsg), human, residues Cys26-Phe223, with the point mutation L107A; Point mutant of m1 made by PCR and In-Fusion cloning; also called Tsg^L107A; source: Expi293-F cells, transfected, purified from conditioned media (Strep-Tactin XT, SEC)) CNKALCASDVSKCLIQELCQCRPGEGNCSCCKECMLCLGALWDECCDCVGMCNPRNYSDTPPTSKSTVEELHEPIPSLFRAATEGDTQLNWNIVSFPVAEELSHHENLVSFLETVNQPHHQNVSVPSNNVHAPYSSDKEHMCTVVYFDDCMSIHQCKISCESMGASKYRWFHNACCECIGPECIDYGSKTVKCMNCMF | 60 nM
